Measured values as given in patent US20210277104A1 (Janssen / Centocor, published 2021).
Changes are numbered by the printed parent chain. Names may count otherwise.

Assays:
recombinant human TNFα [1] = target: T1, recombinant human TNFα (human, UniProt P01375 77-233, 125I-labeled in the receptor binding inhibition assay; unlabeled in the EIA); assay: inhibition of 125I-TNFα binding to plate-coated p55-sf2; reference TNV118 and TNV14
T1 construct: also called huTNFα; tumor necrosis factor alpha
Procedure: 50:1 of p55-sf2 at 0.5:g/ml in PBS was added to Optiplates to coat the wells during a one-hour incubation at 37° C. Serial dilutions of the eight TNV cell supernatants were prepared in 96-well round-bottom plates using PBS/0.1% BSA as diluent. […] The mixture was preincubated for one hour at RT. […] After 2 hrs at RT, Optiplates were washed three times with PBS-Tween. […] of Microscint-20 was added and the cpm bound determined using the TopCount […].
The concentrations of the TNV mAbs in their respective cell supernatants were first determined by standard ELISA analysis for human IgG.

recombinant human TNFα [2] = target: T1, recombinant human TNFα; assay: Competition radioligand assay: inhibition of 5 ng/ml 125I-TNFα binding to plate-coated p55-sf2
recombinant human TNFα [3] = target: T1, recombinant human TNFα; assay: cell-based or functional assay

B1: TNV148 (antibody, V domains shown)
VH: QVQLVESGGGVVQPGRSLRLSCAASGFIFSSYAMHWVRQAPGNGLEWVAFMSYDGSNKKYADSVKGRFTISRDNPKNTLYLQMNSLRAEDTAVYYCARDRGIAAGGNYYYYGMDVWGQGTTVTVSS
VL: EIVLTQSPATLSLSPGERATLSCRASQSVYSYLAWYQQKPGQAPRLLIYDASNRATGIPARFSGSGSGTDFTLTISSLEPEDFAVYYCQQRSNWPPFTFGPGTKVDIKR
fold better at blocking TNF binding than TNV118 and TNV14 (recombinant human TNFα [1]): ~4 fold
IC50 (read off the curve) (recombinant human TNFα [2]): ~4 ng/mL
neutralizing TNFα bioactivity (recombinant human TNFα [3]): 4 fold

B2: TNV196 (antibody, V domains shown)
VH: B1 VH with I28T, N43K, M51I, Y60S, I70V, P75S, Y80F, Y94F, A103G
VL: EIVLTQSPATLSLSPGERATLSCRASQSVYSYLAWYQQKPGQAPRLLIYDASNRATGIPARFSGSGSGTDFTLTISSLEPEDFAVYYCQQRSNWPPFTFGPGTKVDIK
IC50 (read off the curve) (recombinant human TNFα [2]): ~4 ng/mL
neutralizing TNFα bioactivity (recombinant human TNFα [3]): 4 fold

B3: TNV86 (antibody, human IgG1, V domains shown)
VH: B1 VH
VL: B2 VL
notes: Totally human IgG1 kappa from hybridoma, tested as hybridoma supernatant; Variable regions identical to TNV148; also called GenTNV86.14.34; C417A
fold better at blocking TNF binding than TNV118 and TNV14 (recombinant human TNFα [1]): ~4 fold
